Measured values published in the supplement of paper PMC12042874.
± gives the uncertainty stated by the source.

Test: amyloid nucleation score (Sup35N fusion, yeast selection) (log enrichment); library NNK1; higher = more nucleation; inactive = no reads after selection
Procedure, shortened: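 Growth for 7 days at 30°C on medium lacking adenine and uracil followed a 24-hour induction with 100 μM copper sulfate of psi-negative yeast expressing peptides of 20 random codons fused to Sup35N. Input and output plasmid inserts were sequenced with Illumina, and sequences with under 100 input reads were excluded. Nucleation score is the DiMSum log enrichment of output over input reads, centred on the mode score of non-aggregating sequences.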

Substance | amyloid nucleation score
VTSSFWFFNDADSRQ | 3.24 ± 0.1
VTTRLPIYRVKF | 0.228 ± 0.37
VVAFYL | 1.91 ± 0.37
VVDMTVGFENARCGMREVWT | -0.328 ± 1.3
VVEARWNKAMHTNFLNVRES | 0.601 ± 0.65
VVGELLGGTNRFGKRVSSMA | -0.057 ± 0.26
VVGRTEEEHLQHPSWCMCAL | 0.128 ± 1
VVLWLVDFPSPCPELKNLHF | inactive
VVRFCYTEEVRVFNQASLRE | 0.134 ± 0.5
VVSLGNSSDYCHWKLILPTV | 0.151 ± 0.4
VVSYSHAIVRLVLSCDMGRC | 0.441 ± 0.47
VVVFSNYNFVGKCIHVNSEL | 7.351 ± 0.07
VVVSNTLECSTSRVNRKVRT | -0.97 ± 0.72
VWGINILMSFPIV | 5.674 ± 0.053
VWMYMHAFCYSTGRRKAMPG | -1.76 ± 0.77
VWRKTLRWPLGPWAGRS | -1.11 ± 0.46
VWSAMDKALLDSGDGSPMG | 0.138 ± 0.36
VWTDGGSYFRDLNRICGV | 3.74 ± 0.084
VWYFISTYCWDRPKVILSGV | -1.39 ± 1.9
VYACLSHSVRV | 1.05 ± 0.97
VYAYTQLKQGRRHEQGTWS | inactive
VYFIVVVKGRSGLFMLSFGD | -0.997 ± 1.4
VYFYVQPNGFMEIGASMIAA | -0.431 ± 1.4
VYHVTWRLPF | 3.4 ± 0.12
VYINVYHYWRFSKKYVGKLL | 0.318 ± 0.17

Substance | amyloid nucleation score
VYKRFSTTMCLMTSSEWVDS | 2.45 ± 0.068
VYLACVSSPCLKS | -0.2 ± 0.79
VYLWGPKVYRSDWMGRHFK | 0.855 ± 0.72
VYVKYP | -0.125 ± 0.77
WADTIFCTSACNNVSGIRWG | -0.681 ± 0.58
WAMSTFSVYSKRTFVARWDK | 0.048 ± 0.29
WASEMRHGWRAHNIYVGEDC | 0.937 ± 0.59
WCCWVMCV | 6.726 ± 0.061
WCISTIGWRTDGCD | inactive
WCMATCLIMVCANYVICLVG | 0.927 ± 0.55
WCNTMFWHS | 1.09 ± 0.22
WCRDIPWMVLNTVGRY | -0.547 ± 0.63
WDRASYIEYRSFIEWRRLPK | -0.006 ± 0.55
WDVIYVFFIHIYQSVGS | -0.48 ± 0.85
WELVCISFLVRDTCVVI | 0.263 ± 0.47
WESDIFFMIGLVQRRQLTGP | 2.91 ± 0.17
WESSAAVDTCTILKMTEKVG | 0.579 ± 1.2
WEVERDTSSPSEIVINR | -0.063 ± 0.89
WEWSTGFRCC | 0.566 ± 0.48
WFELWKSVRGMENYAYVARC | -0.043 ± 0.29
WFGLTALGDTFYGLYFCKKL | -0.848 ± 0.78
WFNRSICSPNSHNDSSRFNQ | inactive
WFPCVADINICPLGLYHSEG | 8.033 ± 0.062
WFSRTPWYFVFRCNDDMDCS | inactive
WFSYYLLFRYNDNLSRAERS | 0.456 ± 0.61

Substance | amyloid nucleation score
WFYICVVSFDLGIKRRYRHR | inactive
WGIPMVGSRGPMCTKVGFRK | 0.141 ± 0.35
WGLSQSLCHSRNNLHNWISG | 0.207 ± 0.53
WGNFAVSWVFMEVNACRLRW | -0.323 ± 0.66
WGRNMKYVRTGVGLINDLVR | inactive
WGWHNYWDGSVVVWRSATAH | -0.414 ± 0.75
WGYDTHLLMNLRNVCIGFLR | -0.431 ± 0.7
WHEHSYLENSIYITRIKINV | 3.18 ± 0.15
WHEMKY | 1.46 ± 0.13
WHFSMFREWRSS | -0.649 ± 0.73
WHRRLGNMFKIASRTELRMG | -0.672 ± 1.1
WHRSIWR | 0.753 ± 0.56
WHSIADLNLVDYEICVNFFY | -0.75 ± 1.5
WIFSAMVYDSRKLTSYDKSE | 0.543 ± 0.32
WIFTREQAFFSDRCLAASSK | 0.649 ± 0.76
WILPNNRMVFVLYTEQWWTF | 2.33 ± 0.11
WIMRS | inactive
WKCLRYPY | inactive
WKNLGQV | -0.327 ± 0.39
WKVVCNVPVVWFFLKRLHLL | 0.498 ± 0.38
WLFSPNVFVNFCFG | 6.913 ± 0.055
WLNRMFFGDLCDMAIWKMCM | -0.217 ± 0.72
WLSMANHLIISCGSCRFRAF | 0.973 ± 0.44
WLVHIHRTSSISYILCLDLG | inactive
WLVLHTNLMLGCSTRSMLCA | 0.174 ± 0.5

Substance | amyloid nucleation score
WLVVFVDSVYARRWCELKFL | 0.39 ± 0.36
WLWSQLVESCGRVRCSGGSG | 1.37 ± 0.5
WLYMRGPKVVRSCREITARA | 0.413 ± 1.4
WMFIFRLTSTLYYHCC | inactive
WMKVARMYRMESRIMNRRQW | 1.13 ± 0.84
WMRKVIPTNGTVDIETSS | 0.438 ± 0.33
WMSLIGKNMRMIMVIKKWAL | inactive
WNDYAHILLKKRGGRYNLAG | -0.907 ± 0.74
WNEADWHMCH | 1.34 ± 0.38
WNELCHQLNWCICRVAGFVK | -0.637 ± 0.62
WNGLYRFCVVRAQGSFDET | -0.111 ± 0.32
WNQADGIS | -1.66 ± 2.4
WPDISCPPCNGDRMTVKWHV | 0.836 ± 0.97
WPIRVMMGYRLLGMDRNVFG | 0.129 ± 0.68
WPNTPSVTKWTYLFVLHPRM | -0.854 ± 0.95
WQHFLFCKKKRVESCNVSTN | 1.02 ± 0.76
WQVNVLIIMCGSFLLVFDFQ | 0.359 ± 0.45
WRGISVQAVRRLCAKNKSSR | 1.25 ± 0.85
WRHATSEMCFEGMLKCKVVT | 0.903 ± 0.57
WRLLCSITMDWF | -0.15 ± 0.22
WRQYIDRNYVSCSASMLAWE | 0.583 ± 0.43
WRVSVKVVSAELEGMRNFAV | 0.259 ± 0.49
WSGFQCSQDEWNLSMTIVRA | -0.097 ± 0.78
WSKHLAYIVYDVQ | -0.325 ± 1
WSKYVESVRVETVGQVFQLV | -0.009 ± 0.51

Substance | amyloid nucleation score
WSNADEFGPD | -0.256 ± 0.51
WSNGF | 1.89 ± 0.45
WSRAVVFMSIHFRNGLMQ | -0.444 ± 0.64
WSRHELWWVPCCDRMLVLGH | 0.746 ± 0.9
WSRYNSPCSKSMRYRSVSEA | -1.37 ± 1.1
WTAFGRFAVQTFFEKHM | -0.275 ± 0.24
WTLQMLAYWYLTFFFPSFVY | 0.169 ± 0.37
WTMLDMFLFS | -0.872 ± 0.42
WTRCHK | -0.297 ± 0.35
WTRIDSSVYARKGFCAPRLP | 0.021 ± 1.1
WTVLGYFRALQASLRASAGM | 0.099 ± 0.71
WVCLNYYWGCVRRTTRVFCL | -0.198 ± 0.52
WVFEPMEWFDYKFSYHF | -0.255 ± 0.42
WVGFGDVKSVTVMLYAPAWT | 5.04 ± 0.094
WVGLSFDDIKIYSASSN | 0.308 ± 0.52
WVINFVGKTCDTIDP | inactive
WVRGSYPPDAHR | 1.86 ± 0.29
WVVLFLLWNGWVDWHIRTEQ | -0.128 ± 0.36
WVWKTNWWYTRRIASLWDSR | 1.7 ± 0.56
WVYHRQKSCAIFRAEIM | -0.088 ± 0.48
WWDAEFGGKSRAS | -0.012 ± 0.57
WYAFERFDFHLCVDVVQLTR | 1.11 ± 0.94
WYHFVSGAVPHGSNEPKEFN | -1 ± 0.9
WYSVKESLGSPSLPSQFLST | inactive
WYVLCYGPRFFYMSRLS | -0.411 ± 0.3

Substance | amyloid nucleation score
YAAGGIRKSVGSTVRSPWGA | 0.903 ± 0.84
YACQQ | 0.314 ± 0.62
YAFLSEYFSAK | -0.054 ± 0.24
YAFRSRHRSFSFIGTLMVFD | 0.55 ± 0.5
YAGVRLWRRVWRAKTACSVA | 0.169 ± 0.56
YAKVSAIERRCWVMSVTYPD | 0.171 ± 0.28
YALKLSMDVGLYLLFEGDRD | -1.36 ± 1.9
YASCCTDCNWLCFFRRLREA | 7.041 ± 0.054
YASVIVTQHRTMICRQTLCR | 1.46 ± 0.51
YASVVGYLPGCTNINAMKNR | inactive
YCASFRINVIFV | 3.79 ± 0.086
YCCSCASCGPGVNRSWGN | 1.57 ± 0.16
YCKFMLMGNHCFDLFCYSLN | 3.96 ± 0.09
YCLCCHLLKT | inactive
YCQCVCFSAMYSKTSRLNMG | 6.744 ± 0.066
YCQQT | -1.28 ± 0.64
YCTLFGSWPLIVVVGG | -0.772 ± 0.77
YCVQFVRLMLKKNGRGYNYR | -0.762 ± 1.1
YDAIYV | 0.368 ± 0.63
YDILNGQAHDCYETMVKGWG | -0.372 ± 0.47
YEGELTSKKFFAQVNSRVGG | -0.581 ± 1.4
YERGNFCWTIILRFLEF | -1.22 ± 0.78
YFAYQDILVNDTIRIL | 0.063 ± 0.56
YFCQWH | inactive
YFEWFVYLYSSRVFFLMLGR | -0.038 ± 0.62

Substance | amyloid nucleation score
YFFITRAEVSDVVLLLCVCC | -0.158 ± 0.82
YFIPEFSTCVMWRSNNTGKY | -0.211 ± 1.2
YFLFFFHVDCLRNASC | -1.25 ± 2.7
YFLLACLNVS | 0.828 ± 0.26
YFLTHRTGRYNMGDSSVRTL | -0.319 ± 0.38
YFQQEVQFEWGCVWREWCDC | 0.197 ± 0.52
YFSFLDNGGMPYVVVDYGLC | 0.042 ± 0.85
YFSLSVIREVCFFVPWKLRS | 0.14 ± 0.43
YFSYSLQKTAARRGVVMFTQ | -0.378 ± 1.4
YFVMITCFYVILL | -0.126 ± 0.2
YFVQGNMNLSHCTCWCGNRT | 7.589 ± 0.046
YFVSCLFILWPRQSSTRPFE | 8.165 ± 0.077
YGGFIESLLACAKGESRNMM | -0.608 ± 1
YGGMDS | 0.132 ± 0.5
YGLEYVYVVV | 0.277 ± 1.4
YGMAF | -1.71 ± 2.4
YGNWFYIFFS | 6.471 ± 0.054
YGQIPTFHRRSQVHLCNRIW | 0.206 ± 1.6
YGSAVVRQCFG | -0.114 ± 0.35
